These results are taken from the DeepSol protein solubility set.

The series is described as follows: soluble on expression in E. coli; label from the status in PepcDB or PDB records.
Consider “FGKVGYATNLTYTANRNKIMKMVHDYKNPSDGSLFSITELTLQDKGGVYLREKDAIGDVYVKGILARGKDGKLIEEEGGYKVDRSQRIKIGSVNPDFSIGWRHNVTWNNITLDLLFNGRFGGIVTSSTQAFLDDYGVSKDTYKARQNGGVWVNGTQYDAEKYYTTIGGEQLMAYYAYKATNIRLQEASLSYTLPGKWFGNVINRLTVSAIGRNLWMIYNKAPFDPEMTSSTGTYNRGDVFMPPSLRSVGFSVKIEL”, for which the “soluble on expression in E. coli” value is listed as “not soluble”. For the sequence “MKSFQLVATAASGLEAIVGKEVARLGYDPKVENGKVYFEGDLSAIARANLWLRVADRVKIVVGVFKATTFDELFEKTKALPWEDYLPLDAQFPVAGKSVKSTLYSVPDCQAIVKKAIVNRVSEKYRRSGRLMETGALFKLEVSILKDEVTLTIDTSGAGLHKRGYRLAQGSAPIKETMAAALVLLTSWHPDRPFYDPVCGSGTIPIEAALIGQNIAPGFNREFVSETWDWMPKQVWADARQEAEDLANYDQPLNIIGGDIDARLIEIAKQNAVEAGLGDLITFRQLQVADFQTEDEYGVVVANPPYGERLEDEEAVRQLYREMGIVYKRMPTWSVYVLTSYELFEEVYGKKATKKRKLYNGYLRTDLYQYWGPRKPRPKKED”, the “soluble on expression in E. coli” value was “soluble”. The result for “MILPDRKQILDRELIRRIADTTISGSGHSDGLSEYASIRKAAFAFVESAVLGDQAYSPIENAELAFIVWILAALDENIITARTIIKARDTVEKQLRLVEHYEDLEEFGSRLGIEISVFGEQIGKDHLYRIGVADFATYASRVTGSKYRLSNQIVREGYVYVDEDVMAKVLREAFVSFMFDTLDQIRKEDAIETIKSVLDDLEKIRESYRKAHNVRMIAGKGDASMFPPCMKEIIKNLESGVNVSHMGRLALASFLHKAGYSEDEIVPYFRNAPDFDENITRYQIKHISGEISGTEYTPPKCETMRSNHLCYMDDDPLCHREWMKHPLTYYEVKRRNRKIRLEHHHHHH” reads “soluble”; that for “MIHLARRRIVLTTPYFVPDEATLSALRIAGTSGVDVQLILSESNNQFLMAWAQEAYFEELLRAGIKIALYRPHFLHAKHLSVDDDIALFGSINLDIRSFALNAEIGMICYDSRIVTQLREVESDYLANARQLNLVEWQQRPAWRRSREGIARLADALM”, “not soluble”; that for “MQTFFIAPTDFGVGLTSISLGLVRTLERAGLKVGFFKPIAQPHPGDLGPERSTELMARTHGLKPPKPLGLAHVERMLGDGQLDELLEEIINLYQQAAVGKDVLVVEGMVPTRSASYAARVNLHLAKSLDAEVILVSAPENEVLTELSGRVELQAQLFGGPKDPKVLGVILNKVRTEESMEVFAARLKEHSPLLRNGDFRLLGCIPYRAELNAPRTRDVAELLGAQ”, “not soluble”. Turning to “MLDTDTITFVNCMHEYICEMDSYPKMNTEIINFESDALRDNYLGDEFRRQILVYTPDSMTDSYPLMIELAGTNWKPRLHNKFANIVEKLFSQGLKAVIANPNFSTKYNINQYINSPAVGNYEDFIITEIVPYLRERYRTGKTALFGKSSGGFGSYTLAVRHPEVINGFADHFGDSCFFYLYADDFAYTYNMLQKYKKSELIEHLLSKRPTDEEMRALNVFGSSAFYSPDLNDPSGFDLPFDENTGEIKENVWSRWKQLDPVKNVKQNLDALKKLDAVYLDVGDSDEYRLYIGSRSLHNKLLEGGIEHHYEEFHGGHFGNSERYLVSLPYLYDALRVKE”, the “soluble on expression in E. coli” value is recorded as “not soluble”. For the sequence “KPGAMYRNSSKPAYTRREYISGIPGKKIAQFDMGNNGAGPTYPAQVELVVEKPVQIRHNALEAARVAANRYVQNSGAAANYKFRIRKFPFHVIRENKAAAAAAAAAAADGMRAPFGKPVGTAARVHGANHIFIAWVNPDPNVEEAWRRAKMKVTPTINIDSSPAGNA”, the “soluble on expression in E. coli” value was “soluble”. The entry for “MGSDKIHHHHHHMIITPDTLKALFTGFKKNFQDGLKMAESQYKEIATVIPSSTASNTYGWLGQWPAFREWVGDRVFQDMKAHGYAITNKHFESSVKVNRNDIEDDNVGIYAPMMTEMGRASAVHPDELVFALLKNAHATLCYDGQNFFDTDHPVYEKVDGTGQASTVSNIFAGSEAAWYLLDTTRALKPLIYQERKAKQFTAMTADTDEGVFMRNEYRYGVDGRCNVGLGFWQMAAKSQEKLDAAGFEKAYNAMVSLKGDGGRPLAIRPNVLLVPPALENAAKELVEGDRLANGAYNPNKGKAKVIVSPWLL” is “not soluble”; for “STTLTHRARRTEISKNSEKKMESEEDSNWEKSPDNEDSGDSKDIRLTLMEEVLLLGLKDKEGYTSFWNDCISSGLRGGILIELAMRGRIYLEPPTMRKKRLLDRKVLLKSDSPTGDVLLDETLKHIKATEPTETVQTWIELLTGETWNPFKLQYQLRNVRERIAKNLVEKGILTTEKQNFLLFDMTTHPVTNTTEKQRLVKKLQDSVLERWVNDPQRMDKRTLALLVLAHSSDVLENVFSSLTDDKYDVAMNRAKDLVELDPEVEGTKPSATEMIWAVLAAFNKS” it is “soluble”; for “MSDSASGYEYVYYDRQVGAVQKSPNLMNDPKGALFYTLDSVFGDPGDTTGWILYNDEMPADANRSNNATLGHTKGVIAFDIASSSALWLLHSWPKYASPSVPGVPTPLYGQTFLCLSLDLATAGKLAAQMALHQQPQVYLPRTGGLDHTSPLYALTQPLNASAPGDSDSLDFKTRGGVPFKVIAKNRKWGKDFWNDLVGPTLKADMYVETWIRGKIPPVLDSDGVHKTYDIKFIDLRKLGAPWAWPETQDHAKWGITTTDNWVCVGDINRMVTQEKRGGGTIAFQDPKLWKALCETDLIIPPPGKTDAQARAMIRKTHEPAELEHHHHHH” it is “not soluble”. Take “MGSDKIHHHHHHMRYVIVGSGPAGLNAIEAIREVDKEGEILLITAEKYVGYSRPLITYLLGRKVTEEKMYYRTEDYLREMRVDIKPATRVEKVIPEEKTVVTDSGEEIRYDKLLIATGGKPFVPNIEGLTGKKGVFTFTTWEDEEKVEKYIEENDVKEAVVLGGGLIGLKTTEALMELGVKVTIVELADRILSVTFDRKASEIITEALKKEGCSVITNDTVVKVNGDDTVSSVVLKSGKEIPTKLLVIAIGVKPNVEFLKDSGIEINRGIVVNEKMETNVEGVYAAGDCTEFYDLIDGQRKTIAIWPVAVAQGRVAGYNMAGKNVRYPGGIPMNSVELAGIPTISVGHSNVEDGGYEILTFEEGNTYKKMVLKDNRLVGAILVNDIDRAGIYTGLILQKLDVSSFKDRLLDENFGLVYLPKEFRKKMLEGEIKIWLE”: the “soluble on expression in E. coli” value is listed as “not soluble”. The entry for “MLFCTNIAIAQGTIEDYRRAYSAGEKFSANKVSYSNVNPEWIGKTHYFWYVRNTPDGRIYVLVDADTQNRKDLFDHKLVAAALSEASGRKIEATSLYLDRLSVNNGLDTLHFVFNNHRWMYVIDKNQLTDEGALPTPRKQRHWMETDDEKTAAPVTSPDKKYTAFIKNHNIYVKETATGKEKQLSLDGTLGNYYSAYIRWSPDSKKSLPARFVR” is “not soluble”; for “GMNPENWLLLRRVVRFGDTDAAGVMHFHQLFRWCHESWEESLESYGLNPADIFPGSRKSEVTPEVALPIIHCQADFRRPIHTGDALAMELRPERLNPNSFQVHFEFRCEEQIAAHALIRHLAINAQTRHRCALPEGIDRWLEASGVGKIGSI” it is “soluble”; for “DRKAVLNAAEQHFSGWKELYLCLVDRDTQGGLVVETGGPLTFSEAERAAADWAWQHDQPAGSGTGTLPSGRWWWWPITAEEGPLALLGVCAREGQSFTDQHRRLLAALTQPLAQALARAQLAQELEAARLHGETEQLRSALLASVSHDLRTP” it is “not soluble”. The entry for “MSLKILTIVVMSGNVISLNRPSANAAIRLGFTYEGRFRNHAIYKGRSRDTDWFSIIDSEWPVLKKRFENWLSPENFDEQGQQKRSLRDC” is “not soluble”; for “MGSDKIHHHHHHMPAFNQHDLSHFVGKHLIYTYDNGWNYELYVKNANTIDYRIHSGIVGNRWVKDQQVYIVQVAREVYKISWTEPTGTDVSLIANIADKVFHGTIFFPRWVINNPEKTVCFQNEHIAEMEAYRDAGPAYPTEVIDEFATITFIRDCGENNNDVINCPASELPADFPACLKK” it is “not soluble”.
